Test results reported in article PMC10575581 (Science Advances, 2023).

Molecular target: the molecule itself
Test: cryo-EM structure; Der^Δ-p97^Δ complex from Sf9 with ATP·BeFx added through the whole purification; closed class 3.65 Å and open (state U) class 4.51 Å

B1: human Derlin-1 Δ215–239, C-terminal twin strep tag (Sf9) (natural protein, UniProt Q9BUN8-1 1-251, looked up)
chain: MSDIGDWFRSIPAITRYWFAATVAVPLVGKLGLISPAYLFLWPEAFLYRFQIWRPITATFYFPVGPGTGFLYLVNLYFLYQYSTRLETGAFDGRPADYLFMLLFNWICIVITGLAMDMQLLMIPLIMSVLYVWAQLNRDMIVSFWFGTRFKACYLPWVILGFNYIIGGSVINELIGNLVGHLYFFLMFRYPMDLGGRNFLSTPQFLYRWLPSRRHNWGQGFRLGDQ
notes: Derlin-1, human, cDNA NCBI NM_024295.6, whole protein with residues 215 to 239 (loop between TM6 and the SHP box) deleted; a PreScission Protease cleavage site stands before the C-terminal twin strep tag; Cleavage of the tag is not described; also called Der^Δ; truncated Derlin-1; source: Sf9, baculovirus (pFastBac-Dual), coexpressed with p97 Δ1–20, co-purified (Strep-Tactin, SEC in GDN); not …
stoichiometry N: 4
